Test results from article PMC6399350, “Heterologous calcium-dependent inactivation of Orai1 by neighboring TRPV1 channels modulates cell migration and wound healing” (Communications Biology, 2019).
No end group written: not given here.

T1: Orai1-COOH-DsRed (carboxyl terminus of Orai1 fused to the red fluorescent protein) (human)
T1 construct: also called Orai1-dsRED-COOH peptide; source: spotted on the microarray slide; not shown: DsRed, C-terminal, kept
T1 chain: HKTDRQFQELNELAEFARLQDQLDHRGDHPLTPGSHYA

T2: ANK1 domain printed on the microarray slide as bait (rat)
T2 construct: ankyrin domain 1 of rat TRPV1, 110-152; The methods say 'the ANK1 domain (see above)', which points to the ANK1-GFP fusion; Kept apart from m6 for that reason; source: purified peptide, printed on glass microarray slides coated with poly-D-lysine
T2 chain: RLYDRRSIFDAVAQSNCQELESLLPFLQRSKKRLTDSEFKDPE


How the values were obtained:
[1] = target: T1, Orai1-COOH-DsRed (carboxyl terminus of …); assay: peptide or protein array; TIRFM microarray; Orai1-COOH-DsRed printed on poly-D-lysine coated glass as bait, ANK domains fused to GFP in solution at 1 uM, 3 min incubation, wash with saline, GFP fluorescence read; conditions: both partners purified
[2] = target: T2, ANK1 domain printed on the microarray …; assay: peptide or protein array; TIRFM microarray; ANK1 domain printed on poly-D-lysine coated glass as bait, Orai1 terminus fused to GFP in solution, GFP fluorescence read; conditions: both partners purified

binding result [1] | binding result [2] | Binder
binds |  | TGKTCLLKAMLNLHNGQNDTIALLLDVARKTDSLKQFVNASYTDSYY (domain or fragment, ankyrin domain 2 of rat TRPV1, 153-199; source: HEK293, transfected, in lysate (co-IP); HEK293 in suspension, sonicated, immunoprecipitated with anti-GFP antibody (microarray); not shown: enhanced GFP, C-terminal, kept) [ANK2-GFP (second ankyrin domain of rat TRPV1 fused to GFP)]
 | binds | HKTDRQFQELNELAEFARLQDQLDHRGDHPLTPGSHYA (domain or fragment, human, also: fused to GFP, source: HEK293 in suspension, sonicated, immunoprecipitated with anti-GFP antibody (procedure as for the ANK-GFP fusions); not shown: GFP, C-terminal, kept) [Orai1-COOH-GFP (carboxyl terminus of Orai1 fused to GFP)]
binds |  | RLYDRRSIFDAVAQSNCQELESLLPFLQRSKKRLTDSEFKDPE (domain or fragment, ankyrin domain 1 of rat TRPV1, 110-152; source: HEK293, transfected, in lysate (co-IP); HEK293 in suspension, sonicated, immunoprecipitated with anti-GFP antibody (microarray); not shown: enhanced GFP, C-terminal, kept) [ANK1-GFP (first ankyrin domain of rat TRPV1 fused to GFP)]
binds |  | KGQTALHIAIERRNMTLVTLLVENGADVQAAANGDFFKKTKGRPGFY (domain or fragment, ankyrin domain 3 of rat TRPV1, 200-246; source: HEK293, transfected, in lysate (co-IP); HEK293 in suspension, sonicated, immunoprecipitated with anti-GFP antibody (microarray); not shown: enhanced GFP, C-terminal, kept) [ANK3-GFP (third ankyrin domain of rat TRPV1 fused to GFP)]
binds |  | FGELPLSLAACTNQLAIVKFLLQNSWQPADISARDS (domain or fragment, ankyrin domain 4 of rat TRPV1, 247-282; source: HEK293 in suspension, sonicated, immunoprecipitated with anti-GFP antibody (microarray); not shown: enhanced GFP, C-terminal, kept) [ANK4-GFP (fourth ankyrin domain of rat TRPV1 fused to GFP)]
